Laboratory results published in patent US20140219992.
Changes are numbered by the printed parent chain. Numbers in names are those of the source.

T1: fluorogenic peptide substrate IX, Mca-K-P-L-G-L-Dpa-A-R-NH2
T1 chain: KPLGLAR

B1: wild-type human matrix metalloprotease 1 (hMMP-1), purified and trypsin-activated (protein)
chain: FVLTEGNPRWEQTHLTYRIENYTPDLPRADVDHAIEKAFQLWSNVTPLTFTKVSEGQADIMISFVRGDHRDNSPFDGPGGNLAHAFQPGPGIGGDAHFDEDERWTNNFREYNLHRVAAHELGHSLGLSHSTDIGALMYPSYTFSGDVQLAQDDIDGIQAIYGRSQNPVQPIGPQTPKACDSKLTFDAITTIRGEVMFFKDRFYMRTNPFYPEVELNFISVFWPQLPNGLEAAYEFADRDEVRFFKGNKYWAVQGQNVLHGYPKDIYSSFGFPRTVKHIDAALSEENTGKTYFFVANKYWRYDEYKRSMDPGYPKMIAHDFPGIGHKVDAVFMKDGFFYFFHGTRQYKFDPKTKRILTLQKANSWFNCRKN
B2: MMP-1 mutant GVSK (G159V/S208K), purified and trypsin-activated (protein)
chain: B1 chain with G79V, S128K

Assays:
[1] = target: T1, fluorogenic peptide substrate IX, …
[2] = target: serum-derived protein (Zucker rat)

Protein	KM (µM), enzyme kinetics at 1 mM Ca^2+, 37° C. [1] [µM]	KM (µM), enzyme kinetics at 10 mM Ca^2+, 37° C. [1] [µM]	enzymatic activity against the fluorogenic peptide substrate after incubation in 10% Zucker rat serum, 1 mM Ca^2+, 25° C. [2]	enzymatic activity lost after 15 minutes in 10% Zucker rat serum, 1 mM Ca^2+, 25° C. [2]	enzymatic activity remaining after 30 minutes in 10% Zucker rat serum, 1 mM Ca^2+, 25° C. [2]	enzymatic activity remaining after 2 hours in 10% Zucker rat serum, 1 mM Ca^2+, 25° C. [2]	enzymatic activity remaining after 2 hours in 10% Zucker rat serum, 10 mM Ca^2+, 25° C. [2]
B1	20.6	21.1	The activity of MMP-1 in 1 mM Ca^2+ buffer was unaffected by incubation with serum over the course of the study				
B2	16.5	11		After 15 minutes of serum incubation, one-third of the activity of GVSK in 1 mM Ca^2+ was lost	less than 50% of activity remained after 30 minutes	only approximately 17% of the activity of GVSK in 1 mM Ca^2+ remained	approximately 74% of the original activity remaining by the 2 hour time point
